Reference: patent publication US20210309755A1 (FRED HUTCHINSON CANCER CENTER, published 2021)

Experiments:
[1] = target: T1, MSLN-Avi ectodomain (human ectodomain of MSLN) (human, UniProt Q13421 296-598, limits assumed); assay: written beside the structure of the 1A12 Fab on MSLN; no assay named on the sheet (the value is the rounded SPR fit of FIG. 7A)
T1 construct: extracellular domain; Expressed in 293-F cells as the fusion sFlag-His-Scn-tev-MSLN-Avi and cleaved with TEV protease; It was the analyte in SPR, and I take it to be the MSLN in the Fab:MSLN crystal complex as well; not shown: Avi tag
Procedure: (§1) Surface plasmon resonance (SPR) experiments were performed at 25° C. on a BIACORE™ T100 instrument (GE Healthcare) with a Series S CM4 chip using a running buffer of 10 mM HEPES, pH 7.4, 150 mM NaCl, 3 mM EDTA, 0.05% surfactant P20 with 0.1 mg/mL bovine serum albumin. Goat anti-human Fc antibody (Jackson Labs: 109005098) was amine coupled to the CM4 chip (˜2800 RUs) and each antibody was then captured on a single flow cell of immobilized goat anti-human Fc. The purified MSLN-Avi (discussed above) was run as a concentration series at 50 uL/min over the captured antibodies and the goat anti-human Fc reference surface. CM4 chip was regenerated with 10 mM glycine, pH1.5 for 30 sec at 50 uL/min. Data was double referenced and analyzed in BiaEval 2.0.4.

[2] = target: T1, MSLN-Avi ectodomain (human ectodomain …); assay: SPR, Biacore T100, 25 C; antibody captured on goat anti-human Fc (57.1 +/- 0.8 RUs), MSLN-Avi as analyte 2.0-1000 nM in duplicate, 1:1 fit
Procedure: as §1

T1 sequence (Q13421 other isoform, or with tags, fused parts or gaps limits assumed): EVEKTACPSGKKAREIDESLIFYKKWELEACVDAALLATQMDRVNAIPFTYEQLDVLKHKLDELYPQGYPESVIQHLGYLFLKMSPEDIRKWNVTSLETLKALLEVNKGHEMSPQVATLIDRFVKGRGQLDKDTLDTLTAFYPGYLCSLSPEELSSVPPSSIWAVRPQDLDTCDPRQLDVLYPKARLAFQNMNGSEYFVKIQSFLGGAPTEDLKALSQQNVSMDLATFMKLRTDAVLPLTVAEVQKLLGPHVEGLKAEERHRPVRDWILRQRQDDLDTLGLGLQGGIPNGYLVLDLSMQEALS

Kd [1]: 64 nM
Kd [2]: 64.4 nM
koff [2]: 0.00458 s⁻¹
kon [2]: 71100 M⁻¹ s⁻¹
B1: 1A12 anti-MSLN antibody (antibody, human IgG1, V domains shown)
VH: EVQLLESGGGLVQPGGSLRLSCAASGLTFRSYAMTWVRQAPGKGLEWVSGISVSGGITYYADSVKGRFTISRDNSKNTLYLQMNSLRAEDTAVYYCAKRGAAVGSFDYWGQGTLVTVSS
VL: DIQMTQSPSSLSASVGDRVTITCRSSQGIGSWLAWYQQKPEKAPQSLIYAASSLQSGVPSRFSGSGSGTDFTLTISNLQPEDFATYYCQQYNSYPLTFGGGTKVEIK
notes: also called 1A12b; anti-MSLN 1A12 antibody
